From paper PMC5634496 (Nature Communications, 2017)

T1: GST-Ubc13 (UniProt P61088 1-152)
T1 construct: Ubc13 (UBE2N), cDNA in pGEX-4T-1; The end of GST is read from the printed name GST-Ubc13; also called UBE2N; source: E. coli BL21(DE3/pLys), purified (glutathione sepharose beads); not shown: GST, N-terminal, kept
T1 sequence (looked up): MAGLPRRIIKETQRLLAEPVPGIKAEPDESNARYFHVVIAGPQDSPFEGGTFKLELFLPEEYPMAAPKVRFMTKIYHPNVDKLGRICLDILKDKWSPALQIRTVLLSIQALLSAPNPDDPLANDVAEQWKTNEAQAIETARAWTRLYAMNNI


Experiments:
[1] = molecular target: the molecule itself; experiment: native gel or EMSA; proteins purified on anti-Flag M2 magnetic beads, eluted, resolved on 10% native gel, immunoblot with Flag antibody
[2] = molecular target: T1, GST-Ubc13; experiment: pull-down; purified GST-Ubc13 (or GST) mixed with purified TRAF6 fragments and glutathione sepharose beads in lysis buffer A (20 mM Tris-HCl pH 7.4, 150 mM NaCl, 0.5% NP-40, 10% glycerol), 4 °C, 60 min; immunoblot; conditions: both partners purified

Row | Binder | binding result [1] | binding result [2]
1 | TRAF6 mutant M5 (deletion of amino acids 313-319), Flag-tagged (natural protein, mouse, UniProt P70196-1 1-530, looked up, TRAF6, mouse, mutant M5: one complete heptad unit of the CC domain deleted; they may differ; also called TRAF6-M5; source: co-IP: Flag-tagged with Myc-tagged TRAF6 WT) MSLLNCENSCGSSQSSSDCCAAMAASCSAAVKDDSVSGSASTGNLSSSFMEEIQGYDVEFDPPLESKYECPICLMALREAVQTPCGHRFCKACIIKSIRDAGHKCPVDNEILLENQLFPDNFAKREILSLTVKCPNKGCLQKMELRHLEDHQVHCEFALVNCPQCQRPFQKCQVNTHIIEDCPRRQVSCVNCAVSMAYEEKEIHDQSCPLANIICEYCGTILIREQMPNHYDLDCPTAPIPCTFSVFGCHEKMQRNHLARHLQENTQLHMRLLAQAVHNVNLALRPCDAASPSRGCRPEDPNYEETIKQLESQIRELTAKMETQSMYVGELKRTIRTLEDKVAEMEAQQCNGIYIWKIGNFGMHLKSQEEERPVVIHSPGFYTGRPGYKLCMRLHLQLPTAQRCANYISLFVHTMQGEYDSHLPWPFQGTIRLTILDQSEALIRQNHEEVMDAKPELLAFQRPTIPRNPKGFGYVTFMHLEALRQGTFIKDDTLLVRCEVSTRFDMGGLRKEGFQPRSTDAGV | binds | –
2 | CC-Flag (TRAF6 coiled-coil domain) (domain or fragment, mouse, UniProt P70196-1 296-400, looked up, TRAF6 CC domain, mouse; the limits 296-400 aa are printed in the methods for the CC domain cloned with an MBP tag for E. coli; The end of Flag is read from the printed name CC-Flag; also called CC domain; CC WT; not shown: Flag, C-terminal, kept) CRPEDPNYEETIKQLESRLVRQDHQIRELTAKMETQSMYVGELKRTIRTLEDKVAEMEAQQCNGIYIWKIGNFGMHLKSQEEERPVVIHSPGFYTGRPGYKLCMR | – | binds
3 | TRAF6 mutant M4 (V315A, R316A, H319A), Flag-tagged (natural protein, mouse, UniProt P70196-1 1-530, looked up, TRAF6, mouse, mutant M4 in the CC domain; they may differ (MBP fusion, T6RZC background); also called TRAF6-M4; source: co-IP: Flag-tagged with Myc-tagged TRAF6 WT) MSLLNCENSCGSSQSSSDCCAAMAASCSAAVKDDSVSGSASTGNLSSSFMEEIQGYDVEFDPPLESKYECPICLMALREAVQTPCGHRFCKACIIKSIRDAGHKCPVDNEILLENQLFPDNFAKREILSLTVKCPNKGCLQKMELRHLEDHQVHCEFALVNCPQCQRPFQKCQVNTHIIEDCPRRQVSCVNCAVSMAYEEKEIHDQSCPLANIICEYCGTILIREQMPNHYDLDCPTAPIPCTFSVFGCHEKMQRNHLARHLQENTQLHMRLLAQAVHNVNLALRPCDAASPSRGCRPEDPNYEETIKQLESRLAAQDAQIRELTAKMETQSMYVGELKRTIRTLEDKVAEMEAQQCNGIYIWKIGNFGMHLKSQEEERPVVIHSPGFYTGRPGYKLCMRLHLQLPTAQRCANYISLFVHTMQGEYDSHLPWPFQGTIRLTILDQSEALIRQNHEEVMDAKPELLAFQRPTIPRNPKGFGYVTFMHLEALRQGTFIKDDTLLVRCEVSTRFDMGGLRKEGFQPRSTDAGV | binds | –
